Two substances from patent publication US20240238439A1, “HER3-BINDING ANTIBODY-DRUG CONJUGATE” (priority 2023, published 2024) can be followed below.

pEC50, pKd: −log10 of the molar value.

For one assay, the target named is FCɣR IIA (CD32a) (human) (UniProt P12318). Description: SPR.
In the next assay the target is FCɣR IA (CD64) (human) (UniProt P12314). Kind of assay: SPR.
The target in assay [1] is HER3 on the surface of human cancer cell lines (HCT116, DU145, H358, T-47D, OVCAR8) (UniProt P21860). Kind of assay: flow cytometry; OVCAR8 cells.
Assay [2] shares this target. Description: flow cytometry; DU145 cells.
Assay [3] has the same target. Kind of assay: flow cytometry; HCT116 cells.
Assay [4] has the same target. Description: flow cytometry; H358 cells.

Sequence of FCɣR IIA (CD32a) (human) (P12318 34-217): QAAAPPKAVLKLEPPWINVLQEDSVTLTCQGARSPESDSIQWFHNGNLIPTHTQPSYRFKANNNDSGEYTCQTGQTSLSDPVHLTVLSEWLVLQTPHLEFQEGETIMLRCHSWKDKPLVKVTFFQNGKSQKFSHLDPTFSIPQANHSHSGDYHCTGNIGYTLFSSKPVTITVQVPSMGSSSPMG
Sequence of FCɣR IA (CD64) (human) (P12314 16-288): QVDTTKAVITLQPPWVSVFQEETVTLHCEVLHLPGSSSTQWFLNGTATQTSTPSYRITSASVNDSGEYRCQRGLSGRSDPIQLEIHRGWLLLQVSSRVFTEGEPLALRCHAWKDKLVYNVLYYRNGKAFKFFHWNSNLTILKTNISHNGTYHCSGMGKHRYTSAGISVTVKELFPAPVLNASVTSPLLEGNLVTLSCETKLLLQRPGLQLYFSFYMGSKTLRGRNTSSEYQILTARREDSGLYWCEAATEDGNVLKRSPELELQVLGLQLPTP

Turning to Human IgG1 (+ve control), the pKd is 7.24 with FCɣR IIA (CD32a) (human) and 8.19 in the assay with FCɣR IA (CD64) (human).
Patritumab-DXd: the pEC50 in assay [1] was 9.00; in assay [2], 8.62; in assay [3], 9.12; in assay [4] it was 8.08.
